Results reported in US20240018502A1.
Substitutions are numbered along the chain they refer to. Names and notes keep the numbering of the source.

B1: MTSP-1 Q38H/I41T/D60bV/F60eQ/F97T/ins97aE/T98G/F99L/C122S/Q175L/Q192G (enzyme)
chain: VVGGTDADEGEWPWQVSLHALGHGHTCGASLISPNWLVSAAHCYIDVRGQRYSDPTQWTAFLGLHDQSQRSAPGVQERRLKRIISHPFFNDTEGLDYDIALLELEKPAEYSSMVRPISLPDASHVFPAGKAIWVTGWGHTQYGGTGALILQKGEIRVINQTTCENLLPQLITPRMMCVGFLSGGVDSCGGDSGGPLSSVEADGRIFQAGVVSWGDGCAQRNKPGVYTRLPLFRDWIKENTGV
B2: MTSP-1 Q38G/H40R/I41H/D60bH/F60eK/F97T/ins97aE/T98G/F99L/C122S/Q175L/V183A/Q192G (enzyme)
chain: B1 chain with H23G, H25R, T26H, V47H, Q50K, V178A
B3: MTSP-1 Q38H/I41A/F97T/ins97aE/T98G/F99L/C122S/Q175L/Q192G (enzyme)
chain: B1 chain with T26A, V47D, Q50F
B4: MTSP-1 Q38L/I41T/D60bR/F60eL/Y60gM/F97T/ins97aE/T98G/F99L/C122S/G151N/Q175L/Q192G (enzyme)
chain: B1 chain with H23L, V47R, Q50L, Y52M, G146N
B5: MTSP-1 Q38F/I41S/D60bF/F60eR/Y60gF/F97T/ins97aE/T98G/F99L/C122S/G151N/Q175L/Q192V (enzyme)
chain: B1 chain with H23F, T26S, V47F, Q50R, Y52F, G146N, G189V
B6: MTSP-1 Q38V/I41S/D60bT/F60eT/F97D/ins97aV/T98P/F99L/C122S/G151N/Q175H/Q192S (enzyme)
chain: B1 chain with H23V, T26S, V47T, Q50T, T92D, E93V, G94P, G146N, L170H, G189S
B7: MTSP-1 Q38W/I41A/ins97aV/F97D/T98P/F99L/C122S/G151T/Q175S/Q192D (enzyme)
chain: B1 chain with H23W, T26A, V47D, Q50F, T92D, E93V, G94P, G146T, L170S, G189D
B8: MTSP-1 Q38T/I41S/D60bV/F60eR/ins97aV/F97D/T98P/F99L/C122S/G151N/Q175R/Q192V (enzyme)
chain: B1 chain with H23T, T26S, Q50R, T92D, E93V, G94P, G146N, L170R, G189V
B9: MTSP-1 Q38H/I41S/D60bT/F60eS/ins97aV/F97D/T98P/F99L/C122S/G151H/Q175A/Q192D (enzyme)
chain: B1 chain with T26S, V47T, Q50S, T92D, E93V, G94P, G146H, L170A, G189D
B10: MTSP-1 Q38H/I41S/D60bT/F60eT/F97D/ins97aV/T98P/F99L/C122S/G151N/Q175L/Q192V (enzyme)
chain: B1 chain with T26S, V47T, Q50T, T92D, E93V, G94P, G146N, G189V
B11: MTSP-1 Q38Y/I41A/D60bL/F60eQ/ins97aV/F97D/T98P/F99L/C122S/G151N/Q175M/Q192A (enzyme)
chain: B1 chain with H23Y, T26A, V47L, T92D, E93V, G94P, G146N, L170M, G189A
B12: MTSP-1 Q38L/I41T/D60bA/F60eL/ins97aV/F97D/T98P/F99L/C122S/G151H/Q175M/Q192T (enzyme)
chain: B1 chain with H23L, V47A, Q50L, T92D, E93V, G94P, G146H, L170M, G189T
B13: MTSP-1 Q38R/I41S/D60bY/F60eD/ins97aV/F97D/T98P/F99L/C122S/G151N/Q175M/Q192A (enzyme)
chain: B1 chain with H23R, T26S, V47Y, Q50D, T92D, E93V, G94P, G146N, L170M, G189A
B14: MTSP-1 Q38W/I41S/D60bG/F60eI/F97D/ins97aV/T98P/F99L/C122S/G151N/Q175A/Q192D (enzyme)
chain: B1 chain with H23W, T26S, V47G, Q50I, T92D, E93V, G94P, G146N, L170A, G189D
B15: MTSP-1 Q38T/I41S/D60bG/F60eM/ins97aV/F97D/T98P/F99L/C122S/G151N/Q175S/Q192S (enzyme)
chain: B1 chain with H23T, T26S, V47G, Q50M, T92D, E93V, G94P, G146N, L170S, G189S
B16: MTSP-1 I41T/D60bW/F60eH/F97D/ins97aV/T98P/F99L/C122S/G151N/Q175L/Q192G (enzyme)
chain: B1 chain with H23Q, V47W, Q50H, T92D, E93V, G94P, G146N
B17: MTSP-1 Q38D/I41S/D60bT/F60eR/ins97aV/F97D/T98P/F99L/C122S/G151K/Q175S/Q192V (enzyme)
chain: B1 chain with H23D, T26S, V47T, Q50R, T92D, E93V, G94P, G146K, L170S, G189V
B18: MTSP-1 Q38H/I41S/D60bF/F60eV/F97D/ins97aV/T98P/F99L/C122S/G151N/Q175L/Q192A (enzyme)
chain: B1 chain with T26S, V47F, Q50V, T92D, E93V, G94P, G146N, G189A
B19: MTSP-1 Q38L/I41A/D60bH/F60eT/ins97aV/F97D/T98P/F99L/C122S/G151Q/Q175A/Q192G (enzyme)
chain: B1 chain with H23L, T26A, V47H, Q50T, T92D, E93V, G94P, G146Q, L170A
B20: MTSP-1 Q38H/I41A/D60bE/F60eH/Y60gW/F97T/ins97aE/T98G/F99L/C122S/G151N/Q175L/Q192D (enzyme)
chain: B1 chain with T26A, V47E, Q50H, Y52W, G146N, G189D
B21: MTSP-1 Q38H/I41A/D60bV/F60eI/Y60gW/F97T/ins97aE/T98G/F99L/C122S/G151N/Q175L/Q192D (enzyme)
chain: B1 chain with T26A, Q50I, Y52W, G146N, G189D
B22: MTSP-1 Q38E/I41S/D60bV/F60eK/Y60gW/F97T/ins97aE/T98G/F99L/C122S/G151N/Q175L/Q192D (enzyme)
chain: B1 chain with H23E, T26S, Q50K, Y52W, G146N, G189D
B23: MTSP-1 Q38H/I41S/D60bT/F60eS/Y60gW/ins97aV/F97D/T98P/F99L/C122S/G151H/Q175L/Q192D (enzyme)
chain: B1 chain with T26S, V47T, Q50S, Y52W, T92D, E93V, G94P, G146H, G189D
B24: MTSP-1 Q38H/I41S/D60bT/F60eS/Y60gW/F97D/ins97aV/T98P/F99L/C122S/G151H/Q175A/Q192D (enzyme)
chain: B1 chain with T26S, V47T, Q50S, Y52W, T92D, E93V, G94P, G146H, L170A, G189D
B25: MTSP-1 Q38H/I41A/D60bV/F60eR/ins97aE/F97T/T98G/F99L/C122S/G151N/Q175L/Q192D (enzyme)
chain: B1 chain with T26A, Q50R, G146N, G189D
B26: MTSP-1 Q38H/I41A/D60bT/F60eH/Y60gW/F97T/ins97aE/T98G/F99L/C122S/G151N/Q175L/Q192D (enzyme)
chain: B1 chain with T26A, V47T, Q50H, Y52W, G146N, G189D

Target: plasma purified human complement protein C3 (human) (UniProt P01024)
Sequence (P01024 23-667, chain 1 of 2): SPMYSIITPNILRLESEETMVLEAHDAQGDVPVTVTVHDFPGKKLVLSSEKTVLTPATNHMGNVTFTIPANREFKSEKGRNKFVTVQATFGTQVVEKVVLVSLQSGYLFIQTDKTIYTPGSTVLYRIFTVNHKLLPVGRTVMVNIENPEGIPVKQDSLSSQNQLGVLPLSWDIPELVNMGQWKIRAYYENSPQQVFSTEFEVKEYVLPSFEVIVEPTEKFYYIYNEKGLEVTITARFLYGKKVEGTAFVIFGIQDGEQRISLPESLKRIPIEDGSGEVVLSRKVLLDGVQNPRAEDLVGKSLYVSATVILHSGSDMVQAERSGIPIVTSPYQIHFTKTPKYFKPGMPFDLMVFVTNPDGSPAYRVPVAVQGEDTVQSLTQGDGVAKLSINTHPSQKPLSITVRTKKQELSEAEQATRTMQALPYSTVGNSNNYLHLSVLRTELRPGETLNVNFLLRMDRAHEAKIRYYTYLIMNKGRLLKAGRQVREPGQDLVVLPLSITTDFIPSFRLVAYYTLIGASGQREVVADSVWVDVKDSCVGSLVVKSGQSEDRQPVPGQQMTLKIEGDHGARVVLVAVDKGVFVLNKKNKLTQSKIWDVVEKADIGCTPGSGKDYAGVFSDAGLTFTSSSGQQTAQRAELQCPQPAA
Sequence (P01024 672-1663, chain 2 of 2): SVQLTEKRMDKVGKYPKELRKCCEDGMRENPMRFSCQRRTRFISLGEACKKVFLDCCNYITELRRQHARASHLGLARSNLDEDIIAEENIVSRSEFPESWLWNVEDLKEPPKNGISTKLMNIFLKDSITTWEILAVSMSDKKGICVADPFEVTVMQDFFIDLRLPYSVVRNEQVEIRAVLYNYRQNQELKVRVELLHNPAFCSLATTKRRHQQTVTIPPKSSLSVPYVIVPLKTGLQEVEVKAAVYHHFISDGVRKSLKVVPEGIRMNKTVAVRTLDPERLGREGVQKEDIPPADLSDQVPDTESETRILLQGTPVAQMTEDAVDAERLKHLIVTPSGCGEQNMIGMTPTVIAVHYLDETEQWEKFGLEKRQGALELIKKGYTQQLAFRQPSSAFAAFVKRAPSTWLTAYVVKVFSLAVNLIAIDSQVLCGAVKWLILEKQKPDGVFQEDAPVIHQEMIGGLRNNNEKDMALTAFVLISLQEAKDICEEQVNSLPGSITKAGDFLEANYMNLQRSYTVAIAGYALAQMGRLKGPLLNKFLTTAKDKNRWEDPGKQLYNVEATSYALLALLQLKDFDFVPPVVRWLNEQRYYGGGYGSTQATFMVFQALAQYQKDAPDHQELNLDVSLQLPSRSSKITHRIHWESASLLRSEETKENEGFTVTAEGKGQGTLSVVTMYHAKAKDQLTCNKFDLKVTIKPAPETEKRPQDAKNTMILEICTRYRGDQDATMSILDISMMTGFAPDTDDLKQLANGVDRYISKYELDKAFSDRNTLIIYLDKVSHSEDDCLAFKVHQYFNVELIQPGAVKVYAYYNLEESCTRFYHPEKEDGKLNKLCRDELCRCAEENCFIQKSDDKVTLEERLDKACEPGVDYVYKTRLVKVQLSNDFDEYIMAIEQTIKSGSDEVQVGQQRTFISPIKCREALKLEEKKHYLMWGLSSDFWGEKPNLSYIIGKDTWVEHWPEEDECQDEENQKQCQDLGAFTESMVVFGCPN
Experiment: cell-based or functional assay

| Binder | EC50 of hC3 cleavage [nM] |
| --- | --- |
| B1 | 4.93 |
| B2 | 27.7 |
| B3 | 3.9 |
| B4 | 23.7 |
| B5 | 1.96 |
| B6 | 18.5 |
| B7 | 68 |
| B8 | 15.7 |
| B9 | 67.8 |
| B10 | 5.08 |
| B11 | 1.53 |
| B12 | 20.2 |
| B13 | 3.22 |
| B14 | 43.1 |
| B15 | 28.8 |
| B16 | 3.1 |
| B17 | 48.1 |
| B18 | 1.57 |
| B19 | 5.73 |
| B20 | 8.28 |
| B21 | 2.91 |
| B22 | 12.1 |
| B23 | 12.6 |
| B24 | 22.6 |
| B25 | 6.06 |
| B26 | 6.95 |
